Measured values reported in publication PMC1974823.

Molecular target: T1, rFimR (Porphyromonas gingivalis (ATCC 33277?)) (UniProt B2RJ77)
T1 sequence: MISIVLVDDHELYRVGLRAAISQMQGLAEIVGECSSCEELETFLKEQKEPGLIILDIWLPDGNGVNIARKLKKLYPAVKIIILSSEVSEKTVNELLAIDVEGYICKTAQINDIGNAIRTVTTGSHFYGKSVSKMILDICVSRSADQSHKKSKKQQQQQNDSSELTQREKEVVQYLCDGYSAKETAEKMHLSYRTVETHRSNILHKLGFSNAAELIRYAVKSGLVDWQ
Assay: EMSA

CAGATGGGTTGTTGCTCAAGGAGAACGTCGCCAATACCTAAGCAAGAAAAGAGGAACTGTTCCAGAAAATACTTGGGTTACTCCGGGTTCTGGTTTCGTTCCTACCAGCAGCACTTTCTAT (double strand) [mfa1 coding region (121 bp)]
binding: no binding

TGTAACGGGTTCTGCCTCGTTGTCTTTGTTACAAGCTGTCATAGCAAGAGCAGCAAGTCCCAACAAGAAAAACTTTGTTTTTTTCATCTCGTTTTTGTTTTAAAAGTGAATATTGTTTTCTAAAAATCTAATCTTTTCCCATTTAGAGATTGTCTTGCATATAGCGTCG (double strand) [fimA promoter (176 bp)]
binding: no binding
